From the supplement of paper PMC7877785
± gives the uncertainty stated by the source.

Test: self-splicing fitness, log relative to wild type (ln ratio); higher = more splicing; Tetrahymena group I intron in knt gene, E. coli kanamycin selection, DiMSum; sequences stand for … in CUCUCU…GGAGGGAAAAGUUAUCAGGCAUGCACCUGGUAGCUAGUCUUUAAACCAAUAGAUUGCAUCGGUUUAAAAGGCAAGACCGUCAAAUUGCGGGAAAGGGGUCAACAGCCGUUCAGUACCAAGUCUCAGGGGAAACUUUGAGAUGGCCUUGCAAAGGGUAUGGUAAUAAGCUGACGGACAUGGUCCUAACCACGCAGCCAAGUCCUAAGUCAACAGAUCUUCUGUUGAUAUGGAUGCAGUUCACAGACUAAAUGUCGGUCGGGGAAGAUGUAUUCUUCUCAUAAGAUAUAGUCGGACCUCUCCUUAAUGGGAGCUAGCGGAUGAAGUGAUGCAACACUGGAGCCGCUGGGAACUAAUUUGUAUGCGAAAGUAUAUUGAUUAGUUUUGGAGUACUCGUGGUCG
In short: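 Six replicate transformations of E. coli BL21(DE3) with a pET-22b(+) library were grown overnight at 37°C or 30°C. The library randomised all eight P1ex-region intron nucleotides, the intron lying in the knt kanamycin-resistance gene, and plates were LB agar with or without 25 μg/mL kanamycin plus 100 μg/mL carbenicillin, 50 μM IPTG and 0.2% rhamnose. Pooled colonies were amplicon-sequenced on an Illumina HiSeq 2500, and fitness is the DiMSum error-weighted combination of wild-type-normalised replicate fold changes, kanamycin versus none.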

Sequence | self-splicing fitness (ln) (30 °C) | self-splicing fitness (ln) (37 °C)
CCCUAGCAAUAUUACGCAAG | -3.65 ± 0.28 | -2.06 ± 0.23
CCCUAGCAAUAUUACGCAGC | -3 ± 0.17 | -3.24 ± 0.35
CCCUAGCAAUAUUACGCAUG | -2.33 ± 0.14 | -2.73 ± 0.2
CCCUAGCAAUAUUACGCCGG | -3.09 ± 0.17 | -1.6 ± 0.22
CCCUAGCAAUAUUACGCCGU | -2.57 ± 0.25 | -2.42 ± 0.39
CCCUAGCAAUAUUACGCGAC | -4.32 ± 0.36 | -2.67 ± 0.33
CCCUAGCAAUAUUACGCGGG | -3.75 ± 0.23 | -1.92 ± 0.2
CCCUAGCAAUAUUACGGAGU | -4.58 ± 0.36 | -2.99 ± 0.35
CCCUAGCAAUAUUACGGAUU | -4.34 ± 0.23 | -2.26 ± 0.16
CCCUAGCAAUAUUACGGCUA | -2.53 ± 0.17 | -3.13 ± 0.31
CCCUAGCAAUAUUACGGGAC | -2.48 ± 0.18 | -1.87 ± 0.23
CCCUAGCAAUAUUACGGUAU | -3.5 ± 0.14 | -2.13 ± 0.14
CCCUAGCAAUAUUACGUAAG | -3.8 ± 0.18 | -2.04 ± 0.17
CCCUAGCAAUAUUACGUAUA | -3.24 ± 0.25 | -2.89 ± 0.4
CCCUAGCAAUAUUACGUCGG | -3.32 ± 0.22 | -2.57 ± 0.23
CCCUAGCAAUAUUACGUCUG | -2.99 ± 0.18 | -3.17 ± 0.22
CCCUAGCAAUAUUACGUGAG | -3.42 ± 0.22 | -2.38 ± 0.23
CCCUAGCAAUAUUACGUUGA | -3.23 ± 0.19 | -2.83 ± 0.23
CCCUAGCAAUAUUACGUUUA | -2.91 ± 0.14 | -2.16 ± 0.16
CCGAAGCAAUAUUACGAAAA | -1.87 ± 0.26 | -1.09 ± 0.27
CCGAAGCAAUAUUACGACGA | -1.44 ± 0.12 | -0.711 ± 0.13
CCGAAGCAAUAUUACGAGGA | -4.32 ± 0.39 | -2.54 ± 0.21
CCGAAGCAAUAUUACGAGGU | -3.79 ± 0.2 | -2.9 ± 0.26
CCGAAGCAAUAUUACGAGUG | -0.855 ± 0.049 | -0.0149 ± 0.062
CCGAAGCAAUAUUACGAUAA | -2.83 ± 0.12 | -2.96 ± 0.25

Sequence | self-splicing fitness (ln) (30 °C) | self-splicing fitness (ln) (37 °C)
CCGAAGCAAUAUUACGAUAC | -3.86 ± 0.47 | -1.95 ± 0.26
CCGAAGCAAUAUUACGAUGC | -4.36 ± 0.26 | -2.34 ± 0.23
CCGAAGCAAUAUUACGAUUC |  | -2.07 ± 0.25
CCGAAGCAAUAUUACGAUUG | -1.16 ± 0.093 | -0.0885 ± 0.095
CCGAAGCAAUAUUACGCAGA | -2.91 ± 0.38 | -2.57 ± 0.33
CCGAAGCAAUAUUACGCAUG | -1.84 ± 0.11 | -0.892 ± 0.12
CCGAAGCAAUAUUACGCCAC |  | -1.9 ± 0.34
CCGAAGCAAUAUUACGCCGU | -2.44 ± 0.27 | -1.04 ± 0.36
CCGAAGCAAUAUUACGCCUU | -3.35 ± 0.36 | -1.21 ± 0.3
CCGAAGCAAUAUUACGCUGA | -3.08 ± 0.27 | -3.41 ± 0.42
CCGAAGCAAUAUUACGGGAA | -2.26 ± 0.25 | -1.73 ± 0.32
CCGAAGCAAUAUUACGGGUC | -3.13 ± 0.22 | -3.03 ± 0.37
CCGAAGCAAUAUUACGGUCC | -3.68 ± 0.46 | -2.26 ± 0.26
CCGAAGCAAUAUUACGGUCU | -2.93 ± 0.17 | -3.23 ± 0.25
CCGAAGCAAUAUUACGUGCG | -1.04 ± 0.085 | -0.542 ± 0.096
CCGAAGCAAUAUUACGUUUU | -3.83 ± 0.17 | -3.26 ± 0.18
CCGCAGCAAUAUUACGAACC | -1.84 ± 0.39 | 
CCGCAGCAAUAUUACGACCG | -0.576 ± 0.074 | 0.229 ± 0.11
CCGCAGCAAUAUUACGAGAC | -2.24 ± 0.22 | 
CCGCAGCAAUAUUACGAUGU | -3.21 ± 0.14 | -2.83 ± 0.17
CCGCAGCAAUAUUACGCAAG | -1.41 ± 0.095 | -1.18 ± 0.13
CCGCAGCAAUAUUACGCAGA | -2.89 ± 0.2 | -2.25 ± 0.17
CCGCAGCAAUAUUACGCAUC | -3.93 ± 0.28 | -1.95 ± 0.22
CCGCAGCAAUAUUACGCGAG | -3.17 ± 0.12 | -2.2 ± 0.16
